Source: article PMC7899134 (Cell, 2021)

T1: IL-23 (IL-23p19/p40), crystallography construct (human, UniProt Q9NPF7 20-189; P29460 23-328)
T1 sequence (looked up) 1: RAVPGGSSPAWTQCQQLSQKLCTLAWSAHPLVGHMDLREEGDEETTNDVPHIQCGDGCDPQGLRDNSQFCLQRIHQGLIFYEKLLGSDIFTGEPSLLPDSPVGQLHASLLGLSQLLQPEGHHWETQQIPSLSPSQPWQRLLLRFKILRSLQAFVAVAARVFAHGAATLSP
T1 sequence (looked up) 2: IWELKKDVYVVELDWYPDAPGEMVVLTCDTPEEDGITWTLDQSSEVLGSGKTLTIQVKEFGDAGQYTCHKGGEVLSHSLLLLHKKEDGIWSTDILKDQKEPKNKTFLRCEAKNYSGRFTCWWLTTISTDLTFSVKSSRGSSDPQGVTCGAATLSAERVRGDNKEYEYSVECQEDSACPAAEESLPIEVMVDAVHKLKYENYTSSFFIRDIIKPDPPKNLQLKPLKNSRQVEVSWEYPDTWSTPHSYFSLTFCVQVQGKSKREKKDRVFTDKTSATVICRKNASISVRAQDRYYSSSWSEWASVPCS

T2: human IL-23R (1–309) (human, UniProt Q5VWK5-1 24-309)
T2 sequence (looked up): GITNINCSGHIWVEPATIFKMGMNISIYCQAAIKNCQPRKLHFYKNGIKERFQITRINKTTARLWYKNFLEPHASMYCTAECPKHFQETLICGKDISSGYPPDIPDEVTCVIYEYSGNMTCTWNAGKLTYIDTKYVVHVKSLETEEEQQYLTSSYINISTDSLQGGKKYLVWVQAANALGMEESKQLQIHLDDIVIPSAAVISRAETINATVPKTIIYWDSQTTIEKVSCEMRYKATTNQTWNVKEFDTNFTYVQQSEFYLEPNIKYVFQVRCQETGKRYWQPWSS

B1: human IL-23R (1–315), crystallography construct (domain or fragment, UniProt Q5VWK5-1 24-315, looked up)
chain: GITNINCSGHIWVEPATIFKMGMNISIYCQAAIKNCQPRKLHFYKNGIKERFQITRINKTTARLWYKNFLEPHASMYCTAECPKHFQETLICGKDISSGYPPDIPDEVTCVIYEYSGNMTCTWNAGKLTYIDTKYVVHVKSLETEEEQQYLTSSYINISTDSLQGGKKYLVWVQAANALGMEESKQLQIHLDDIVIPSAAVISRAETINATVPKTIIYWDSQTTIEKVSCEMRYKATTNQTWNVKEFDTNFTYVQQSEFYLEPNIKYVFQVRCQETGKRYWQPWSSLFFHKT
B2: IL-23 (IL-23p19 and p40), biotinylated, SPR construct (complex)
chain 1: PAWTQCQQLSQKLCTLAWSAHPLVGHMDLREEGDEETTNDVPHIQCGDGCDPQGLRDNSQFCLQRIHQGLIFYEKLLGSDIFTGEPSLLPDSPVGQLHASLLGLSQLLQPEGHHWETQQIPSLSPSQPWQRLLLRFKILRSLQAFVAVAARVFAHGAATLSP
chain 2: T1 sequence (looked up) 2
modifications: biotin on the AviTag (BirA ligase)
B3: IL-23 (IL-23p19 28–189 / p40 23–328 with BirA substrate peptide), T. ni expressed (complex, human)
chain 1: B2 chain 1
chain 2: T1 sequence (looked up) 2
modifications: biotinylated in vitro for the yeast staining
B4: human p40 (23–328) with BirA substrate peptide, T. ni expressed (natural protein, UniProt P29460 23-328, looked up)
chain: T1 sequence (looked up) 2
B5: human IL-23p19 (28–189), T. ni expressed (natural protein, UniProt Q9NPF7 28-189, looked up)
chain: B2 chain 1
B6: human p40 (23-328), crystallography construct (natural protein)
chain: T1 sequence (looked up) 2
B7: human p40 (23–328) alone, biotinylated, SPR construct (natural protein, UniProt P29460 23-328, looked up)
chain: T1 sequence (looked up) 2
modifications: biotin on the AviTag (BirA ligase)
B8: human IL-23p19 (20-189), crystallography construct (natural protein, UniProt Q9NPF7 20-189, looked up)
chain: T1 sequence (looked up) 1

Columns and labels:
[1] = molecular target: T1, IL-23 (IL-23p19/p40), crystallography …; test: crystal structure
[2] = molecular target: B6; test: crystal structure
[3] = molecular target: T3, human IL-12Rβ1 D1–D2 (25–239) (human, UniProt P42701 25-239); test: SPR
[4] = molecular target: affi-IL-12Rβ1 D1–D5 (25–542) Tyr109Ser Gln132Leu (human, UniProt P42701 25-542, Tyr109Ser | Gln132Leu); test: cryo-EM structure
human IL-23R (1–309) = molecular target: T2, human IL-23R (1–309); test: cryo-EM structure
[5] = molecular target: T3, human IL-12Rβ1 D1–D2 (25–239); test: crystal structure
[6] = molecular target: affi-IL-12Rβ1 D1–D2 (25–239) Tyr109Ser Gln132Leu (human, UniProt P42701 25-239, Tyr109Ser | Gln132Leu); test: SPR
[7] = molecular target: B1; test: crystal structure

B1
binding result [1]: binds
binding result [2]: binds

B2
binding result [3]: binds

B3
binding result [4]: binds

B4
binding result [4]: binds

B5
binding result (human IL-23R (1–309)): binds

B6
binding result [5]: binds

B7
binding result [6]: binds
binding result [3]: binds

B8
binding result [7]: binds
